Key:
[1] = molecular target: Biotinylated recombinant mouse serum albumin (Mus musculus) (UniProt P07724); experiment: flow cytometry on cells; yeast surface titration at pH 7.4: NbAlb1 displayed on yeast (2 x 10^5 cells per well), ten concentrations of soluble biotinylated SA from 30 pM to 1 μM, 1 h at 4°C, PBS pH 7.4 with 0.01% w/v casein, NeutrAvidin DyLight 650, MFI; three independent experiments
[2] = molecular target: Biotinylated human serum albumin (Homo sapiens) (UniProt P02768); experiment: as above

Kd [1]: 54.5 nM | Kd [2]: 6.6 nM
Substance: NbAlb1 displayed on the surface of yeast as NbAlb1-(G4S)3-HA-pStalk fusion protein (VHH)

From PMC10804666
